Results: US7432061B2, “Assays for measuring matrix metalloproteinase activities” (BioZyme, Inc., priority 2002, dated 2008)

What was measured:
collagenase 1 = target: T1, collagenase 1 (Homo sapiens, UniProt P03956); assay: Inhibition with type II collagen, FlSub3 cleavage; format: biochemical; details: for Improvement In Selectivity (Col-1 v Col-3): 44 ug/ml Type II Collagen vs no Type II Collagen, FlSb3; for Average Percent Inhibition from 1.1 to 6.6 Hours / Average Percent Inhibition: COL1(1.25 nM)
T1 sequence (P03956 100-469): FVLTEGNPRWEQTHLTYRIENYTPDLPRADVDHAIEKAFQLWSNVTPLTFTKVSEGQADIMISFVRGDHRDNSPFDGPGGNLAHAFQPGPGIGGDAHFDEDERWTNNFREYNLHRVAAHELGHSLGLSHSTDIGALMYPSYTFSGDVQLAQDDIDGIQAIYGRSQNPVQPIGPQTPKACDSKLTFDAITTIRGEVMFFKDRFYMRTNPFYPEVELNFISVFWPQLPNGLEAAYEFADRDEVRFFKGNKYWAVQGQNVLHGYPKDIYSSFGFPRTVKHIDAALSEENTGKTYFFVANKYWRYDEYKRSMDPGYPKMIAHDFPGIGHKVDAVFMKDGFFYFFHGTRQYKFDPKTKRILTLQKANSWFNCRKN
Protocol: (§1) In a 96 well plate, collagenase 3 (0.013 nM), collagenase 1 (1.25 nM), stromelysin 1 (0.8 nM), gelatinase A (0.025 nM), or gelatinase B (0.008 nM) were reacted with 20 uM FlSub3 in standard assay buffer in the presence of varying concentrations of bovine type II collagen (0.18-44 ug/ml). The type II collagen, a 1 mg/ml stock in 0.5M acetic acid, was transferred into assay buffer by passing the material through a biospin P6 column from Amersham. The reaction was initiated by addition of substrate to enzyme containing either buffer or an appropriate amount of type II collagen. Data points were taken every 15 min over a period of 15 hours using an excitation and emission wavelength of 350 and 485 nm respectively. The usable data (1-6 hours), was taken and the percent inhibition by type II collagen was calculated for each enzyme and plotted as a function of inhibitor concentration and time in the assay. It should be noted that the percent inhibition varies with time as the bovine substrate is consumed during the reaction course.

gelatinase B = gelatinase B (Homo sapiens, UniProt P14780); assay: Inhibition with type II collagen, FlSub3 cleavage; format: biochemical; details: for Improvement In Selectivity (Gel-B v Col-3): 44 ug/ml Type II Collagen vs no Type II Collagen, FlSb3; for Average Percent Inhibition from 1.1 to 6.6 Hours / Average Percent Inhibition: GELB(.008 nM)
Protocol: as §1

[1] = TypeIICOL(1.6 ug/ul), FISb3, hour 0.10 to 1.10
[2] = TypeIICOL(1.6 ug/ul), FISb3, hour 1.10 to 2.10
[3] = TypeIICOL(1.6 ug/ul), FISb3, hour 1.10 to 6.60
[4] = TypeIICOL(1.6 ug/ul), FISb3, hour 2.10 to 3.10
[5] = TypeIICOL(1.6 ug/ul), FISb3, hour 3.10 to 4.10
[6] = TypeIICOL(1.6 ug/ul), FISb3, hour 4.10 to 5.10
[7] = TypeIICOL(1.6 ug/ul), FISb3, hour 5.10 to 6.10
[8] = TypeIICOL(4.9 ug/ul), FISb3, hour 0.10 to 1.10
[9] = TypeIICOL(4.9 ug/ul), FISb3, hour 1.10 to 2.10
[10] = TypeIICOL(4.9 ug/ul), FISb3, hour 1.10 to 6.60
[11] = TypeIICOL(4.9 ug/ul), FISb3, hour 2.10 to 3.10
[12] = TypeIICOL(4.9 ug/ul), FISb3, hour 3.10 to 4.10
[13] = TypeIICOL(4.9 ug/ul), FISb3, hour 4.10 to 5.10
[14] = TypeIICOL(4.9 ug/ul), FISb3, hour 5.10 to 6.10
[15] = TypeIICOL(15 ug/ul), FISb3, hour 0.10 to 1.10
[16] = TypeIICOL(15 ug/ul), FISb3, hour 1.10 to 2.10
[17] = TypeIICOL(15 ug/ul), FISb3, hour 1.10 to 6.60
[18] = TypeIICOL(15 ug/ul), FISb3, hour 2.10 to 3.10
[19] = TypeIICOL(15 ug/ul), FISb3, hour 3.10 to 4.10
[20] = TypeIICOL(15 ug/ul), FISb3, hour 4.10 to 5.10
[21] = TypeIICOL(15 ug/ul), FISb3, hour 5.10 to 6.10
[22] = TypeIICOL(44 ug/ul), FISb3, hour 0.10 to 1.10
[23] = TypeIICOL(44 ug/ul), FISb3, hour 1.10 to 2.10
[24] = TypeIICOL(44 ug/ul), FISb3, hour 1.10 to 6.60
[25] = TypeIICOL(44 ug/ul), FISb3, hour 2.10 to 3.10
[26] = TypeIICOL(44 ug/ul), FISb3, hour 3.10 to 4.10
[27] = TypeIICOL(44 ug/ul), FISb3, hour 4.10 to 5.10
[28] = TypeIICOL(44 ug/ul), FISb3, hour 5.10 to 6.10
[29] = TypeIICOL(.18 ug/ul), FISb3, hour 0.10 to 1.10
[30] = TypeIICOL(.18 ug/ul), FISb3, hour 1.10 to 2.10
[31] = TypeIICOL(.18 ug/ul), FISb3, hour 1.10 to 6.60
[32] = TypeIICOL(.18 ug/ul), FISb3, hour 2.10 to 3.10
[33] = TypeIICOL(.18 ug/ul), FISb3, hour 3.10 to 4.10
[34] = TypeIICOL(.18 ug/ul), FISb3, hour 4.10 to 5.10
[35] = TypeIICOL(.18 ug/ul), FISb3, hour 5.10 to 6.10
[36] = TypeIICOL(.55 ug/ul), FISb3, hour 0.10 to 1.10
[37] = TypeIICOL(.55 ug/ul), FISb3, hour 1.10 to 2.10
[38] = TypeIICOL(.55 ug/ul), FISb3, hour 1.10 to 6.60
[39] = TypeIICOL(.55 ug/ul), FISb3, hour 2.10 to 3.10
[40] = TypeIICOL(.55 ug/ul), FISb3, hour 3.10 to 4.10
[41] = TypeIICOL(.55 ug/ul), FISb3, hour 4.10 to 5.10
[42] = TypeIICOL(.55 ug/ul), FISb3, hour 5.10 to 6.10

gelatinase B, sequence (P14780 94-707): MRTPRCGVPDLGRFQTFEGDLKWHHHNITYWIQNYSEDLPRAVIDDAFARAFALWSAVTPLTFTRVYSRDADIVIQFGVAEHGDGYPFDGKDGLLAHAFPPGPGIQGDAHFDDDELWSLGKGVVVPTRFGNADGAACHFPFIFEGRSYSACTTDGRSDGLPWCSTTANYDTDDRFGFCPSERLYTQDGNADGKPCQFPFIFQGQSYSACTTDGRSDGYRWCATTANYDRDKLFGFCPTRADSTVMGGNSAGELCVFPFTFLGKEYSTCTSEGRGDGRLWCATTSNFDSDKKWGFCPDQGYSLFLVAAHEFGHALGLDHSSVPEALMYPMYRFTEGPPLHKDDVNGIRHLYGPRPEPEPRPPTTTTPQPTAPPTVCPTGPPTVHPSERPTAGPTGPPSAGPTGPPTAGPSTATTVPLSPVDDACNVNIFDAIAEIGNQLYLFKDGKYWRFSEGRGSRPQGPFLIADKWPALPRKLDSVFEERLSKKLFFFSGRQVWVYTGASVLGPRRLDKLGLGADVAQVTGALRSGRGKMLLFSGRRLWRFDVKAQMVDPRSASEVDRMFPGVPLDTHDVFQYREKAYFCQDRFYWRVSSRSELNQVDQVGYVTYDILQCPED

- Improvement In Selectivity (Col-1 v Col-3) (collagenase 1): 2.5 fold
- Improvement In Selectivity (Col-1 v Col-3) (collagenase 1; listed as collagen): four
- Average Percent Inhibition from 1.1 to 6.6 Hours (collagenase 1; Type II Collagen 0.18 ug/ml): 0%
- Average Percent Inhibition from 1.1 to 6.6 Hours (collagenase 1; Type II Collagen 0.54 ug/ml): 3%
- Average Percent Inhibition from 1.1 to 6.6 Hours (collagenase 1; Type II Collagen 1.63 ug/ml): 0%
- Average Percent Inhibition from 1.1 to 6.6 Hours (collagenase 1; Type II Collagen 4.89 ug/ml): 2%
- Average Percent Inhibition from 1.1 to 6.6 Hours (collagenase 1; Type II Collagen 14.67 ug/ml): 10%
- Average Percent Inhibition from 1.1 to 6.6 Hours (collagenase 1; Type II Collagen 44.00 ug/ml): 15%
- Average Percent Inhibition (collagenase 1; [1]): 19%
- Average Percent Inhibition (collagenase 1; [2]): 6%
- Average Percent Inhibition (collagenase 1; [3]): 0%
- Average Percent Inhibition (collagenase 1; [4]): 0%
- Average Percent Inhibition (collagenase 1; [5]): −2%
- Average Percent Inhibition (collagenase 1; [6]): −3%
- Average Percent Inhibition (collagenase 1; [7]): −4%
- Average Percent Inhibition (collagenase 1; [8]): 37%
- Average Percent Inhibition (collagenase 1; [9]): 13%
- Average Percent Inhibition (collagenase 1; [10]): 2%
- Average Percent Inhibition (collagenase 1; [11]): 3%
- Average Percent Inhibition (collagenase 1; [12]): 0%
- Average Percent Inhibition (collagenase 1; [13]): −2%
- Average Percent Inhibition (collagenase 1; [14]): −4%
- Average Percent Inhibition (collagenase 1; [15]): 44%
- Average Percent Inhibition (collagenase 1; [16]): 21%
- Average Percent Inhibition (collagenase 1; [17]): 10%
- Average Percent Inhibition (collagenase 1; [18]): 12%
- Average Percent Inhibition (collagenase 1; [19]): 8%
- Average Percent Inhibition (collagenase 1; [20]): 6%
- Average Percent Inhibition (collagenase 1; [21]): 4%
- Average Percent Inhibition (collagenase 1; [22]): 50%
- Average Percent Inhibition (collagenase 1; [23]): 29%
- Average Percent Inhibition (collagenase 1; [24]): 15%
- Average Percent Inhibition (collagenase 1; [25]): 18%
- Average Percent Inhibition (collagenase 1; [26]): 12%
- Average Percent Inhibition (collagenase 1; [27]): 9%
- Average Percent Inhibition (collagenase 1; [28]): 7%
- Average Percent Inhibition (collagenase 1; [29]): 17%
- Average Percent Inhibition (collagenase 1; [30]): 3%
- Average Percent Inhibition (collagenase 1; [31]): 0%
- Average Percent Inhibition (collagenase 1; [32]): 0%
- Average Percent Inhibition (collagenase 1; [33]): −1%
- Average Percent Inhibition (collagenase 1; [34]): −1%
- Average Percent Inhibition (collagenase 1; [35]): −1%
- Average Percent Inhibition (collagenase 1; [36]): 15%
- Average Percent Inhibition (collagenase 1; [37]): 6%
- Average Percent Inhibition (collagenase 1; [38]): 3%
- Average Percent Inhibition (collagenase 1; [39]): 3%
- Average Percent Inhibition (collagenase 1; [40]): 2%
- Average Percent Inhibition (collagenase 1; [41]): 1%
- Average Percent Inhibition (collagenase 1; [42]): 1%
- inhibition of collagenase 1 by type II collagen (collagenase 1; early timepoints, FlSub3): small but significant inhibition
- Improvement In Selectivity (Gel-B v Col-3) (gelatinase B): 46 fold
- Improvement In Selectivity (Gel-B v Col-3) (gelatinase B; listed as collagen): approximately 80 fold
- Average Percent Inhibition from 1.1 to 6.6 Hours (gelatinase B; Type II Collagen 0.18 ug/ml): 9%
- Average Percent Inhibition from 1.1 to 6.6 Hours (gelatinase B; Type II Collagen 0.54 ug/ml): 9%
- Average Percent Inhibition from 1.1 to 6.6 Hours (gelatinase B; Type II Collagen 1.63 ug/ml): 12%
- Average Percent Inhibition from 1.1 to 6.6 Hours (gelatinase B; Type II Collagen 4.89 ug/ml): 38%
- Average Percent Inhibition from 1.1 to 6.6 Hours (gelatinase B; Type II Collagen 14.67 ug/ml): 65%
- Average Percent Inhibition from 1.1 to 6.6 Hours (gelatinase B; Type II Collagen 44.00 ug/ml): 84%
- Average Percent Inhibition (gelatinase B; [1]): −28%
- Average Percent Inhibition (gelatinase B; [2]): 14%
- Average Percent Inhibition (gelatinase B; [3]): 12%
- Average Percent Inhibition (gelatinase B; [4]): 19%
- Average Percent Inhibition (gelatinase B; [5]): 15%
- Average Percent Inhibition (gelatinase B; [6]): 11%
- Average Percent Inhibition (gelatinase B; [7]): 7%
- Average Percent Inhibition (gelatinase B; [8]): 35%
- Average Percent Inhibition (gelatinase B; [9]): 43%
- Average Percent Inhibition (gelatinase B; [10]): 38%
- Average Percent Inhibition (gelatinase B; [11]): 47%
- Average Percent Inhibition (gelatinase B; [12]): 41%
- Average Percent Inhibition (gelatinase B; [13]): 35%
- Average Percent Inhibition (gelatinase B; [14]): 30%
- Average Percent Inhibition (gelatinase B; [15]): 57%
- Average Percent Inhibition (gelatinase B; [16]): 67%
- Average Percent Inhibition (gelatinase B; [17]): 65%
- Average Percent Inhibition (gelatinase B; [18]): 72%
- Average Percent Inhibition (gelatinase B; [19]): 69%
- Average Percent Inhibition (gelatinase B; [20]): 64%
- Average Percent Inhibition (gelatinase B; [21]): 59%
- Average Percent Inhibition (gelatinase B; [22]): 41%
- Average Percent Inhibition (gelatinase B; [23]): 82%
- Average Percent Inhibition (gelatinase B; [24]): 84%
- Average Percent Inhibition (gelatinase B; [25]): 87%
- Average Percent Inhibition (gelatinase B; [26]): 87%
- Average Percent Inhibition (gelatinase B; [27]): 85%
- Average Percent Inhibition (gelatinase B; [28]): 83%
- Average Percent Inhibition (gelatinase B; [29]): 3%
- Average Percent Inhibition (gelatinase B; [30]): 12%
- Average Percent Inhibition (gelatinase B; [31]): 9%
- Average Percent Inhibition (gelatinase B; [32]): 11%
- Average Percent Inhibition (gelatinase B; [33]): 9%
- Average Percent Inhibition (gelatinase B; [34]): 7%
- Average Percent Inhibition (gelatinase B; [35]): 5%
- Average Percent Inhibition (gelatinase B; [36]): 3%
- Average Percent Inhibition (gelatinase B; [37]): 10%
- Average Percent Inhibition (gelatinase B; [38]): 9%
- Average Percent Inhibition (gelatinase B; [39]): 12%
- Average Percent Inhibition (gelatinase B; [40]): 10%
- Average Percent Inhibition (gelatinase B; [41]): 8%
- Average Percent Inhibition (gelatinase B; [42]): 6%
- inhibition of gelatinase B by type II collagen (gelatinase B; highest concentration (44 ug/ml), six hour time course, FlSub3): Almost complete inhibition
Substance: Type II Collagen: bovine type II collagen, full length MMP substrate used as inhibitor of gelatinases
